Results taken from patent US20090169538A1, “Methods of Treating or Preventing Tissue Damage Caused by Increased Blood Flow” (REGENERX BIOPHARMACEUTICALS, INC., priority 2006, published 2009).

Biological target: T1, integrin linked kinase (ILK) (Homo sapiens, UniProt Q13418)
T1 construct: expressed in transfected cells; host or cells: Cos and 10T1/2 cells
T1 sequence (Q13418 1-452): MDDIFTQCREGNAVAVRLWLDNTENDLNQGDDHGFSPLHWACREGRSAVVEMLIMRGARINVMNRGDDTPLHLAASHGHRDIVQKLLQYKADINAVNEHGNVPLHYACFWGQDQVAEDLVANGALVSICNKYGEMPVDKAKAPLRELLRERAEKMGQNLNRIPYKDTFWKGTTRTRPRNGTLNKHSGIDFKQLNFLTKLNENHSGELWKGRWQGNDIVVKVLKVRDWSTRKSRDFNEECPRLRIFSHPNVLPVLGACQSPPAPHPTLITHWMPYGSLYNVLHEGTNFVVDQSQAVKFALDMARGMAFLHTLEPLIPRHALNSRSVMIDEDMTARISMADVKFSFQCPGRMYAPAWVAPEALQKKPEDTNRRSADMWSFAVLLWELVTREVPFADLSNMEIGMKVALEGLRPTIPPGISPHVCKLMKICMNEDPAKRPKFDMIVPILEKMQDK
Assay: coimmunoprecipitation with ILK
Type: binding
Source text: To investigate the potential mechanisms through which thymosin β4 might be influencing cell migration and survival events, thymosin β4 interacting proteins were searched. The amino-terminus of […] was fused with affi-gel beads resulting in exposure of the carboxy-terminus that allowed identification of previously unknown interacting proteins but prohibited association with actin. An E9.5-12.5 mouse heart T7 phage cDNA library was synthesized and screened by phage display and thymosin β4-interacting clones were enriched and confirmed by ELISA. PINCH, a LIM domain protein, was most consistently isolated in this screen and interacted with thymosin β4 in the absence of actin (ELISA). PINCH and integrin linked kinase (ILK) interact directly with one another and indirectly with the actin cytoskeleton as part of a larger complex involved in cell-extracellular matrix interactions known as the focal adhesion complex. PINCH and ILK are required for cell motility and for cell survival, in part by promoting phosphorylation of the serine-threonine kinase Akt/protein kinase B, a central kinase in survival and growth signaling pathways. […] The PINCH interaction with thymosin β4 mapped to the fourth and fifth LIM domains of PINCH while the amino terminal ankryin domain of ILK was sufficient for thymosin β4 interaction. […]

thymosin β4 was tested, and the “strength of interaction of ILK with thymosin β4” value (common complex immunoprecipitation) was “weaker than with PINCH” and the “co-precipitation with ILK” value (plasmids transfected in cultured cells) was “co-precipitated”.
